Results reported in patent US20210147507A1, “METHODS TO AUGMENT OR ALTER SIGNAL TRANSDUCTION” (Bellicum Pharmaceuticals, Inc., priority 2017, published 2021).
Positions count from the first letter of the chain named. Numbers in names are those of the source. Each block holds one molecule with its values, some of them ahead of it.

Assays:
[1] = molecular target: wt FRB (K2095 T2098 W2101) (Homo sapiens, UniProt P42345+P62942); settings: cited from earlier work
FRB-PLF = FRB-PLF (Homo sapiens, UniProt P42345+P62942, K2095P/T2098L/W2101F); settings: cited from earlier work
Sequence of FRB-PLF (P42345 2012-2144 K2095P/T2098L/W2101F limits assumed): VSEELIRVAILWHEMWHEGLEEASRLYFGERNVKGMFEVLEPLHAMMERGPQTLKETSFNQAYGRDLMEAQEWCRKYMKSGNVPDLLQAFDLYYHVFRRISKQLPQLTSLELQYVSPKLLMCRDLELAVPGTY
Sequence of FRB-PLF (P62942 2-108 limits assumed): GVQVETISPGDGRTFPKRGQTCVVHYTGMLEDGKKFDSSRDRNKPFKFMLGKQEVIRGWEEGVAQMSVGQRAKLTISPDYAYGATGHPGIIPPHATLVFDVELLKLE

FRB-KTF = FRB-KTF (Homo sapiens, UniProt P42345+P62942, W2101F); settings: cited from earlier work
Sequence of FRB-KTF (P42345 2012-2144 W2101F): as the sequence (P42345 2012-2144 K2095P/T2098L/W2101F limits assumed) above, with P84K, L87T counted along it
Sequence of FRB-KTF (P62942 2-108): as the sequence (P62942 2-108 limits assumed) above

[2] = test system: chimeric Caspase-9 polypeptide; assay: Caspase-9 mutant classes and basal activity (Table 5); type: cell-based; settings: Caspase-9 mutant class; for Basal Activity: basal (ligand-independent) signaling compared with unmodified chimeric Caspase-9
Sequence of chimeric Caspase-9 polypeptide (P62942 2-108 F37V limits assumed): as the sequence (P62942 2-108 limits assumed) above, with F36V counted along it

Sequence of wt FRB (K2095 T2098 W2101) (P42345 2012-2144 limits assumed): as the sequence (P42345 2012-2144 K2095P/T2098L/W2101F limits assumed) above, with P84K, L87T, F90W counted along it
Sequence of wt FRB (K2095 T2098 W2101) (P62942 2-108 limits assumed): as the sequence (P62942 2-108 limits assumed) above

Molecule: CO[C@@H]1C[C@H](C[C@@H](C)[C@@H]2CC(=O)[C@H](C)/C=C(\C)[C@@H](O)[C@@H](OC)C(=O)[C@H](C)C[C@H](C)/C=C/C=C/C=C(\C)[C@H](OC(C)C)C[C@@H]3CC[C@@H](C)[C@@](O)(O3)C(=O)C(=O)N3CCCC[C@H]3C(=O)O2)CC[C@H]1O [R-Isopropoxyrapamycin]
EC50 [1]: ~300 nM
EC50 (FRB-PLF): ~8.5 nM

Molecule: S-Butanesulfonamidorap [AP23050]
EC50 [1]: ~2.7 nM
EC50 (FRB-KTF): > 200 nM

B1: G402A (protein)
chain: GFGDVGALESLRGNADLAYILSMEPCGHCLIINNVNFCRESGLRTRTGSNIDCEKLRRRFSSLHFMVEVKGDLTAKKMVLALLELARQDHGALDCCVVVILSHGCQASHLQFPGAVYGTDGCPVSVEKIVNIFNGTSCPSLGGKPKLFFIQACGGEQKDHGFEVASTSPEDESPGSNPEPDATPFQEGLRTFDQLDAISSLPTPSDIFVSYSTFPGFVSWRDPKSGSWYVETLDDIFEQWAHSEDLQSLLLRVANAVSVKGIYKQMPACFNFLRKKLFFKTSASRA
Catalytic activity (class 'Catalytically dead') [2]: dead

B2: G402I (protein)
chain: B1 chain with A268I
Catalytic activity (class 'Catalytically dead') [2]: dead

Basal Activity [2]: Decreased
B3: S196D (protein)
chain: B1 chain with S62D, A268G

B4: G402Y (protein)
chain: B1 chain with A268Y
Catalytic activity (class 'Catalytically dead') [2]: dead

Basal Activity [2]: Decreased
B5: S144D (protein)
chain: B1 chain with S10D, A268G

Basal Activity [2]: Decreased
B6: S144A (protein)
chain: B1 chain with S10A, A268G

Basal Activity [2]: Decreased
B7: T317S (protein)
chain: B1 chain with T183S, A268G

B8: C403P (protein)
chain: B1 chain with A268G, C269P
Catalytic activity (class 'Catalytically dead') [2]: dead

B9: G402Q (protein)
chain: B1 chain with A268Q
Catalytic activity (class 'Catalytically dead') [2]: dead

B10: 402GCFNF^406QPTFT (Casp-8) (protein, UniProt P55211 1-416, looked up, variant G402Q C403P F404T N405F F406T)
chain: MDEADRRLLRRCRLRLVEELQVDQLWDALLSRELFRPHMIEDIQRAGSGSRRDQARQLIIDLETRGSQALPLFISCLEDTGQDMLASFLRTNRQAAKLSKPTLENLTPVVLRPEIRKPEVLRPETPRPVDIGSGGFGDVGALESLRGNADLAYILSMEPCGHCLIINNVNFCRESGLRTRTGSNIDCEKLRRRFSSLHFMVEVKGDLTAKKMVLALLELAQQDHGALDCCVVVILSHGCQASHLQFPGAVYGTDGCPVSVEKIVNIFNGTSCPSLGGKPKLFFIQACGGEQKDHGFEVASTSPEDESPGSNPEPDATPFQEGLRTFDQLDAISSLPTPSDIFVSYSTFPGFVSWRDPKSGSWYVETLDDIFEQWAHSEDLQSLLLRVANAVSVKGIYKQMPQPTFTLRKKLFFKTS
Catalytic activity (class 'Catalytically dead') [2]: dead
